Source: patent US20140079706A1 (published 2014)
Residue numbers refer to the chain shown, from its start.

B1: Mab 2F11 (antibody, V domains shown)
VH: QVQLKESGPGLVAPSQSLSITCTVSGFSLTTYDISWIRQSPGKGLEWLGVIWTDGGTNYNSPFMSRLSIRKDNSKSQVFLKMNRLQTDDTAIYYCVRDQRLYFDVWGAGTTVTVSS
VL: NIVMTQSPKSMSMSVGERVTLNCKASEDVNTYVSWYQQQPEQSPKLLIYGASNRYTGVPDRFTGGGSTTDFTLTISSVQAEDLADYFCGQSFSYPTFGTGTKLEIK
notes: Murine monoclonal antibody from hybridoma; also called muMab 2F11
B2: Mab 1G10 (antibody, V domains shown)
VH: B1 VH with Q1R, T31S, T53S, D54G, S68R, R70S, N73D, K75R, M82V, Q99L
VL: KIVMTQSPKSMSVSVGERVSLSCKASEDVGTYVSWYQQKPEQSPKLLIYGSSNRYTGVPDRFTGSGSATDFTLTISSVQAEDLADYSCGQSFTYPTFGTGTKLEIK
notes: Murine monoclonal antibody
B3: Mab 2E10 (antibody, V domains shown)
VH: QVQLKESGPGLVAPSKSLSITCTVSGSSLDSFDISWIRQSPGKGLEWLGVIWTGGGTNYNSGFMSRLRITKDNSKSQVLLKMNSLQSDDTAIYYCVRDPRLYFDVWGAGTTVTVSS
VL: B1 VL with N22S, N30V, Q39K, E41D, G65S, T68A, F87Y, S91T
notes: Murine monoclonal antibody
B4: Mab 2H7 (antibody, V domains shown)
VH: B3 VH with S40P, T70S, L79F, N83S
VL: B1 VL with N22S, N30V, Q39K, G65S, T68A, V78I, F87Y, S91T
notes: Murine monoclonal antibody

target: T1, human CSF-1R fragment D1-D3 (human, UniProt P07333 20-311); experiment: SPR Biacore T100, 37°C; antibody captured, D1-D3 injected, single cycle kinetics
T1 construct: Subcloned into pCMV-presS-HisAvitag expression vector
T1 sequence (P07333 20-311 limits assumed): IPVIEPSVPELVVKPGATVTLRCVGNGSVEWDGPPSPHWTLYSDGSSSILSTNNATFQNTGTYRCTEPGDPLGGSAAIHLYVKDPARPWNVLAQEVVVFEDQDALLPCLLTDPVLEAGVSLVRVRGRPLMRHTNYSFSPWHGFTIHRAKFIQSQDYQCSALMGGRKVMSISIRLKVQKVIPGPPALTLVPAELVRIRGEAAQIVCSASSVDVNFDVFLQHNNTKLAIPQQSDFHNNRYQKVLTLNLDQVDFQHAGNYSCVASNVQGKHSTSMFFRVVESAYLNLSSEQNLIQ
Experimental: Antibodies against CSF-1R were captured via amine coupled capture molecules. Using the single cycle kinetics five increasing concentrations of human CSF-1R fragment D1-D3 (SEQ ID NO: 66) were injected. Human CSF-1R fragment D1-D3 was subcloned into pCMV-presS-HisAvitag expression vector.
Single Cycle Kinetics was measured at a flow rate of 30 μL/min by five consecutive injections of the analyte with concentrations, c=7.8, 31.25, 125 500 and 2000 nM, without regeneration. Each injection was 30 seconds long and followed by a dissociation phase of 120 Seconds for the first four injections, and finally 1200 seconds for the highest concentration (=last injection).
Kinetic parameters were calculated by using the usual double referencing (control reference: binding of analyte to capture molecule; Flow Cell: subdomain CSF-1R concentration “0” as Blank) and calculation with model ‘titration kinetics 1:1 binding with draft’.

Binder	binding result
B1	no binding (tested: up to 2000 nM D1-D3)
B2	no binding (tested: up to 2000 nM D1-D3)
B3	no binding (tested: up to 2000 nM D1-D3)

target: CSF-1R on cynomolgous monocytes (cynomolgous); experiment: cell-based or functional assay

Binder	% inhibition (of survival) = (100% - % survival), cynomolgous monocytes, 5 µg/ml antibody	% survival of cynomolgous monocytes at 5 µg/ml antibody (150 ng/ml huCSF-1, CellTiterGlo)
B1	96%	4%
B2	98%	2%
B3	83%	17%
B4	92%	8%
